Measured values as given in US11981719 (ALTEOGEN, dated 2024).

Columns and labels:
[1] = target: T1, recombinant hGH receptor Fc chimera (human, UniProt P10912 19-264); assay: ELISA on plate-coated recombinant hGH receptor Fc chimera, detected with biotinylated anti-hGH polyclonal antibody
T1 construct: also called hGH receptor chimera; not shown: Fc part of the chimera
T1 sequence (looked up): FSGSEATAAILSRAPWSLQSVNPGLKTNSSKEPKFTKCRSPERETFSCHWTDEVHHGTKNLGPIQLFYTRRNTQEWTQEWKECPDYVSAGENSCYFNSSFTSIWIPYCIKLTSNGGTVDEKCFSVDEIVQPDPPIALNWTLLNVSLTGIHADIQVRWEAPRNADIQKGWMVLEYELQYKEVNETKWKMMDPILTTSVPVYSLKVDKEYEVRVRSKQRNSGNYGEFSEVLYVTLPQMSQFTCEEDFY
Procedure: After additional washing step, 3,3',5,5'-tetramethylbenzidine (TMB) was added to each well to allow TMB reaction. Absorbance signals from the reaction were recorded at 450 nm to 650 nm.

[2] = target: T2, hGH receptor on hGHR/Luc/HEK293F cells (human, UniProt P10912 19-638); assay: cell-based or functional assay
T2 sequence (looked up): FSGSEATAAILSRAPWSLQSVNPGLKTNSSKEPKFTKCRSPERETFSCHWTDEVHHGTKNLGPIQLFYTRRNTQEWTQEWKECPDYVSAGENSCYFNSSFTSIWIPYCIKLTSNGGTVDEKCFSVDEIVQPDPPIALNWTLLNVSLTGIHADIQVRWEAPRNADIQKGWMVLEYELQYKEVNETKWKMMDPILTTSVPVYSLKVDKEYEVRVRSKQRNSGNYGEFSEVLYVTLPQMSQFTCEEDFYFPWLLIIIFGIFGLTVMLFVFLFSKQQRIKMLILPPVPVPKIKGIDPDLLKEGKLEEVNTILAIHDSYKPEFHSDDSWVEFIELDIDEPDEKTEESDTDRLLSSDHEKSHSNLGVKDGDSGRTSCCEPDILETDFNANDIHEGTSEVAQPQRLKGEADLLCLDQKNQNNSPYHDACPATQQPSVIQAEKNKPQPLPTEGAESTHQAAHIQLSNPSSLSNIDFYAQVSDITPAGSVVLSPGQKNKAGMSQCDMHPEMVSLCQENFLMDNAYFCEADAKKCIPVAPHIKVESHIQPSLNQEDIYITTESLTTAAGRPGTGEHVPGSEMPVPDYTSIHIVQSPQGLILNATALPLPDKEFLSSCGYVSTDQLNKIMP

Molecule: Pegvisomant (ligand)
- Relative binding potency (relative to Pegvisomant) [1]: 1
- Relative inhibitory potency (relative to Pegvisomant) [2]: 1

B1: hGH-A3 (ligand)
chain: FPTIPLSRLFDNAMLRAHRLNQLAFDTYQEFEEAYIPKEQKYSFLQNPQTSLCFSESIPTPSNREETQQKSNLELLRISLLLIQSWLEPVQFLRSVFANSLVYGASDSNVYDLLKDLEEKIQTLMGRLEDGSPRTGQIFKQTYSKFDTNSHNDDALLKNYGLLYCFRKDMDKVSTFLRIVQCRSVEGSCGFEDPQGDAANKTDTSHHDQDHPTFNKITPNLAEFAFSLYRQLAHQSNSTNIFFSPVSIATAFAMLSLGTKADTHDEILEGLNFNLTEIPEAQIHEGFQELLHTLNQPDSQLQLTTGNGLFLSEGLKLVDKFLEDVKKLYHSEAFTVNFGDTEEAKKQINDYVEKGTQGKIVDLVKELDRDTVFALVNYIFFKGKWERPFEVKDTEEEDFHVDQVTTVKVPMMKRLGMFNIQHCKKLSSWVLLMKYLGNATAIFFLPDEGKLQHLENELTHDIITKFLENEDRRSASLHLPKLSITGTYDLKSVLGQLGITKVFSNGADLSGVTEEAPLKLSKAVHKAVLTIDEKGTEAAGAMFLEAINMSIPPEVKFNKPFVFLMIDQNTKSPLFMGKVVNPTQK
notes: also called hGHRA-NexP
- Relative binding potency [1]: 0.925 relative to Pegvisomant
- Relative inhibitory potency [2]: 0.957 relative to Pegvisomant

B2: hGH-A4 (ligand)
chain: FPTIPLSRLFDNAMLRADRLNQLAFDTYQEFEEAYIPKEQKYSFLQNPQTSLCFSESIPTPSNREETQQKSNLELLRISLLLIQSWLEPVQFLRSVFANSLVYGASDSNVYDLLKDLEEKIQTLMGRLEDGSPRTGQIFKQTYSKFDTNSHNDDALLKNYGLLYCFRKDMDKVSTFLRTVQCRSVEGSCGFEDPQGDAANKTDTSHHDQDHPTFNKITPNLAEFAFSLYRQLAHQSNSTNIFFSPVSIATAFAMLSLGTKADTHDEILEGLNFNLTEIPEAQIHEGFQELLHTLNQPDSQLQLTTGNGLFLSEGLKLVDKFLEDVKKLYHSEAFTVNFGDTEEAKKQINDYVEKGTQGKIVDLVKELDRDTVFALVNYIFFKGKWERPFEVKDTEEEDFHVDQVTTVKVPMMKRLGMFNIQHCKKLSSWVLLMKYLGNATAIFFLPDEGKLQHLENELTHDIITKFLENEDRRSASLHLPKLSITGTYDLKSVLGQLGITKVFSNGADLSGVTEEAPLKLSKAVHKAVLTIDEKGTEAAGAMFLEAINMSIPPEVKFNKPFVFLMIDQNTKSPLFMGKVVNPTQK
notes: also called hGHRA-NexP
- Relative binding potency [1]: 2.31 relative to Pegvisomant
- Relative inhibitory potency [2]: 1.22 relative to Pegvisomant

B3: hGH-A6 (ligand)
chain: FPTIPLSRLFDNAMLRAHRLNQLAFDTYQEFEEAYIPKEQKYSFLQNPQTSLCPSESIPTPSNKEETQQKSNLELLRISLLLIQSWLEPVQFLRSVFANSLVYGASDSNVYDLLKDLEEKIQTLMGRLEDGSPRTGQIFKQTYSKFDTNSHNDDALLKNYGLLYCFRKDMDKVSTYLRIVQCRSVEGSCGFEDPQGDAANKTDTSHHDQDHPTFNKITPNLAEFAFSLYRQLAHQSNSTNIFFSPVSIATAFAMLSLGTKADTHDEILEGLNFNLTEIPEAQIHEGFQELLHTLNQPDSQLQLTTGNGLFLSEGLKLVDKFLEDVKKLYHSEAFTVNFGDTEEAKKQINDYVEKGTQGKIVDLVKELDRDTVFALVNYIFFKGKWERPFEVKDTEEEDFHVDQVTTVKVPMMKRLGMFNIQHCKKLSSWVLLMKYLGNATAIFFLPDEGKLQHLENELTHDIITKFLENEDRRSASLHLPKLSITGTYDLKSVLGQLGITKVFSNGADLSGVTEEAPLKLSKAVHKAVLTIDEKGTEAAGAMFLEAINMSIPPEVKFNKPFVFLMIDQNTKSPLFMGKVVNPTQK
notes: also called hGHRA-NexP
- Relative binding potency [1]: 3.37 relative to Pegvisomant
- Relative inhibitory potency [2]: 1.42 relative to Pegvisomant

B4: hGH-A7 (ligand)
chain: FPTIPLSRLFDNAMLRAHRLNQLAFDTYQEFEEAYIPKEQKYSFLQNPQTSLCPSESIPTPSNKEETQQKSNLELLRISLLLIQSWLEPVQFLRSVFANSLVYGASDSNVYDLLKDLEEKIQTLMGRLEDGSPRTGQIFKQTYSKFDTNSHNDDALLKNYGLLYCFNKDMSKVSTYLRIVQCRSVEGSCGFEDPQGDAANKTDTSHHDQDHPTFNKITPNLAEFAFSLYRQLAHQSNSTNIFFSPVSIATAFAMLSLGTKADTHDEILEGLNFNLTEIPEAQIHEGFQELLHTLNQPDSQLQLTTGNGLFLSEGLKLVDKFLEDVKKLYHSEAFTVNFGDTEEAKKQINDYVEKGTQGKIVDLVKELDRDTVFALVNYIFFKGKWERPFEVKDTEEEDFHVDQVTTVKVPMMKRLGMFNIQHCKKLSSWVLLMKYLGNATAIFFLPDEGKLQHLENELTHDIITKFLENEDRRSASLHLPKLSITGTYDLKSVLGQLGITKVFSNGADLSGVTEEAPLKLSKAVHKAVLTIDEKGTEAAGAMFLEAINMSIPPEVKFNKPFVFLMIDQNTKSPLFMGKVVNPTQK
notes: also called hGHRA-NexP
- Relative binding potency [1]: 4.73 relative to Pegvisomant
- Relative inhibitory potency [2]: 1.84 relative to Pegvisomant

B5: hGH-A8 (ligand)
chain: FPTIPLSRLFDNAMLRADRLNQLAFDTYQEFEEAYIPKEQKYSFLQNPQTSLCFSESIPTPSNREETQQKSNLELLRISLLLIQSWLEPVQFLRSVFANSLVYGASDSNVYDLLKDLEEKIQTLMGRLEDGSPRTGQIFKQTYSKFDTNSHNDDALLKNYGLLYCFNADMSRVSTFLRTVQCRSVEGSCGFEDPQGDAANKTDTSHHDQDHPTFNKITPNLAEFAFSLYRQLAHQSNSTNIFFSPVSIATAFAMLSLGTKADTHDEILEGLNFNLTEIPEAQIHEGFQELLHTLNQPDSQLQLTTGNGLFLSEGLKLVDKFLEDVKKLYHSEAFTVNFGDTEEAKKQINDYVEKGTQGKIVDLVKELDRDTVFALVNYIFFKGKWERPFEVKDTEEEDFHVDQVTTVKVPMMKRLGMFNIQHCKKLSSWVLLMKYLGNATAIFFLPDEGKLQHLENELTHDIITKFLENEDRRSASLHLPKLSITGTYDLKSVLGQLGITKVFSNGADLSGVTEEAPLKLSKAVHKAVLTIDEKGTEAAGAMFLEAINMSIPPEVKFNKPFVFLMIDQNTKSPLFMGKVVNPTQK
notes: also called hGHRA-NexP
- Relative binding potency [1]: 4.64 relative to Pegvisomant
- Relative inhibitory potency [2]: 1.42 relative to Pegvisomant

B6: hGH-A9 (ligand)
chain: FPTIPLSRLFDNAMLRADRLNQLAFDTYQEFEEAYIPKEQKYSFLKNPQTSLCFSESIPTPSNREETQQKSNLELLRISLLLIQSWLEPVQFLRSVFANSLVYGASDSNVYDLLKDLEEKIQTLMGRLEDGSPRTGQIFKQTYSKFDTNSHNDDALLKNYGLLYCFRKDMDKVSTFLRTVQCRSVEGSCGFEDPQGDAANKTDTSHHDQDHPTFNKITPNLAEFAFSLYRQLAHQSNSTNIFFSPVSIATAFAMLSLGTKADTHDEILEGLNFNLTEIPEAQIHEGFQELLHTLNQPDSQLQLTTGNGLFLSEGLKLVDKFLEDVKKLYHSEAFTVNFGDTEEAKKQINDYVEKGTQGKIVDLVKELDRDTVFALVNYIFFKGKWERPFEVKDTEEEDFHVDQVTTVKVPMMKRLGMFNIQHCKKLSSWVLLMKYLGNATAIFFLPDEGKLQHLENELTHDIITKFLENEDRRSASLHLPKLSITGTYDLKSVLGQLGITKVFSNGADLSGVTEEAPLKLSKAVHKAVLTIDEKGTEAAGAMFLEAINMSIPPEVKFNKPFVFLMIDQNTKSPLFMGKVVNPTQK
notes: also called hGHRA-NexP
- Relative binding potency [1]: 4.58 relative to Pegvisomant
- Relative inhibitory potency [2]: 1.89 relative to Pegvisomant

B7: hGH-A10 (ligand)
chain: EDPQGDAANKTDTSHHDQDHPTFNKITPNLAEFAFSLYRQLAHQSNSTNIFFSPVSIATAFAMLSLGTKADTHDEILEGLNFNLTEIPEAQIHEGFQELLHTLNQPDSQLQLTTGNGLFLSEGLKLVDKFLEDVKKLYHSEAFTVNFGDTEEAKKQINDYVEKGTQGKIVDLVKELDRDTVFALVNYIFFKGKWERPFEVKDTEEEDFHVDQVTTVKVPMMKRLGMFNIQHCKKLSSWVLLMKYLGNATAIFFLPDEGKLQHLENELTHDIITKFLENEDRRSASLHLPKLSITGTYDLKSVLGQLGITKVFSNGADLSGVTEEAPLKLSKAVHKAVLTIDEKGTEAAGAMFLEAINMSIPPEVKFNKPFVFLMIDQNTKSPLFMGKVVNPTQKFPTIPLSRLFDNAMLRAHRLNQLAFDTYQEFEEAYIPKEQKYSFLQNPQTSLCPSESIPTPSNKEETQQKSNLELLRISLLLIQSWLEPVQFLRSVFANSLVYGASDSNVYDLLKDLEEKIQTLMGRLEDGSPRTGQIFKQTYSKFDTNSHNDDALLKNYGLLYCFNKDMSKVSTYLRIVQCRSVEGSCGF
notes: also called hGHRA-NexP
- Relative binding potency [1]: 6.08 relative to Pegvisomant
- Relative inhibitory potency [2]: 17.7 relative to Pegvisomant

B8: hGH-A11 (ligand)
chain: EDPQGDAANKTDTSHHDQDHPTFNKITPNLAEFAFSLYRQLAHQSNSTNIFFSPVSIATAFAMLSLGTKADTHDEILEGLNFNLTEIPEAQIHEGFQELLHTLNQPDSQLQLTTGNGLFLSEGLKLVDKFLEDVKKLYHSEAFTVNFGDTEEAKKQINDYVEKGTQGKIVDLVKELDRDTVFALVNYIFFKGKWERPFEVKDTEEEDFHVDQVTTVKVPMMKRLGMFNIQHCKKLSSWVLLMKYLGNATAIFFLPDEGKLQHLENELTHDIITKFLENEDRRSASLHLPKLSITGTYDLKSVLGQLGITKVFSNGADLSGVTEEAPLKLSKAVHKAVLTIDEKGTEAAGAMFLEAINMSIPPEVKFNKPFVFLMIDQNTKSPLFMGKVVNPTQKFPTIPLSRLFDNAMLRADRLNQLAFDTYQEFEEAYIPKEQKYSFLKNPQTSLCFSESIPTPSNREETQQKSNLELLRISLLLIQSWLEPVQFLRSVFANSLVYGASDSNVYDLLKDLEEKIQTLMGRLEDGSPRTGQIFKQTYSKFDTNSHNDDALLKNYGLLYCFRKDMDKVSTFLRTVQCRSVEGSCGF
notes: also called hGHRA-NexP
- Relative binding potency [1]: 9.95 relative to Pegvisomant
- Relative inhibitory potency [2]: 17.3 relative to Pegvisomant
